Experimental data reported in publication PMC8135044, “Lytic transglycosylase MltG cleaves in nascent peptidoglycan and produces short glycan strands” (The Cell Surface, 2021).

Target: T1, BsPBP2B (Bacillus subtilis, UniProt Q07868 1-713)
T1 construct: Not pulled down by Ni-NTA beads alone; also called class B PBP2B; source: E. coli BL21 (DE3), purified from membranes (Ni-NTA, thrombin, HiTrap SP ion exchange)
T1 sequence (looked up): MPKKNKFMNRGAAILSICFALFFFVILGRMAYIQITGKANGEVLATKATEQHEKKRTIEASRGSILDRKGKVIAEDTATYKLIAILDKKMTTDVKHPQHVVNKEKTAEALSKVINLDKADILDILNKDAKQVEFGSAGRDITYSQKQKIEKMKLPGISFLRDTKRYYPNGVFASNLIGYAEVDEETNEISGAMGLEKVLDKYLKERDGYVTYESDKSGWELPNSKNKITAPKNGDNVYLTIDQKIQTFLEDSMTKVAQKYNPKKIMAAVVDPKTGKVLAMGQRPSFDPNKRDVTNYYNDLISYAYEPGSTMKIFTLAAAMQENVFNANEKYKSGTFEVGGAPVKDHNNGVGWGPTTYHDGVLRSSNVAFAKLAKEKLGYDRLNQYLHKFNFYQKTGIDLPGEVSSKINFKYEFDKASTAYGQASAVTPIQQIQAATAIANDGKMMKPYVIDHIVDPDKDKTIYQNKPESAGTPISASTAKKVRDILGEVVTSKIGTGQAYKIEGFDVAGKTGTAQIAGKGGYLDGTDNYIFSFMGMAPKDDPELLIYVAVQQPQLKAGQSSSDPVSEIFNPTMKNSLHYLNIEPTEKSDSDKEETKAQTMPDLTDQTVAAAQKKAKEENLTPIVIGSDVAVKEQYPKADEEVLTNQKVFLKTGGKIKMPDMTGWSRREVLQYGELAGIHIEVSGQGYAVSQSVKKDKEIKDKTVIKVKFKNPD
Assay: SPR; PBP2B covalently bound to ampicillin immobilised on the chip; BsMltG injected as analyte, 0 to 500 nM; 25 C; 10 mM Tris/Maleate, 150 mM NaCl, 0.05% Triton X-100, pH 7.5; response at equilibrium fitted to one site saturation; three independent experiments
Details: both partners purified

B1: BsMltG (enzyme, Bacillus subtilis, UniProt O34758 1-360, looked up)
chain: MYINQQKKSFFNKKRIILSSIVVLFLIIGGAFLYGKSLLEPVEKDSKTTVNINIPSGSSVSAIASILKKNDVIKSEKAFQYYVKYKGASGFQAGFYHLNKGMDLDAIIQKLTSGATGYAFQITVTEGAQLTQIAAAIADETKYSKKQVIAKLDDETFINQLKKEFPDTVTNDVFNKNIKHPLEGYLFPATYPFNDPDTSLEDIIKAMIKQTNSYVETYKSEMKKNKVSVHKLLTMASLIEEEATEKADRHKIASVFYNRLKKKMPLQTDPTVLYAAGKHKDRVLYKDLEIDSPYNTYKNTGLTPGPIANAGMSSWEAALHPDKTDYLYFLAKSNGEVVFTKTLKEHNKAKEKYISSKNEK
notes: Named without 'His-' in the SPR and activity assays; also called YrrL; MltG from Bacillus subtilis; source: E. coli BL21 (DE3), purified from membranes (Ni-NTA, thrombin, HiTrap SP ion exchange)
With B1 as the binder, how does the Kd read?
The Kd was 128 ± 28 nM.
